Among the data in patent US20260097105A1, “SYSTEMS, FORMULATIONS AND METHODS FOR GENERATING UNIVERSAL PEPTIDE/MHC COMPLEXES WITH ENGINEERED DISULFIDE CONNECTING THE HEAVY AND LIGHT CHAINS” (priority 2022, published 2026) are fold of peptide exchange kinetics (Kassoc.) against WT HLA-A*24:02 and IC50 values, retold here.

Assay [1] deals with open HLA-A*24:02 (G120C)/β2m (H31C)/… (human). Briefly: fluorescence polarization, peptide exchange, 200 nM pMHC.
For assay [2], the target named is WT HLA-A*29:02/β2m/[…] (human). Briefly: competition. As to conditions: chains peptide; modification not given.

In assay [1], KYNPIRTTF (modifications not checked) gave a fold of peptide exchange kinetics (Kassoc.) against WT HLA-A*24:02 of 6 fold.

For orientation: IC50 means the point on the concentration scale where inhibition reaches its midpoint. High values mean lower potency, low ones higher potency. In assay [2], ALIDVFHQY gave an IC50 of 49 nM.
